Source: article PMC11074293 (Nature Communications, 2024)
Blank lines part the entries; values can stand above or below the binder they belong to.

Assays:
[1] = target: the molecule itself; assay: cryo-EM structure; full-length CUL3-RBX1-KLHL22 co-expressed in SF9, purified, GraFix (glutaraldehyde gradient); C2 symmetry, 3.8 Å overall, 3.3 Å for the dimer assembly region
[2] = target: the molecule itself; assay: SEC-MALS; WTC-015S5 column, low salt buffer; complexes at 2 mg/ml, KLHL22^1–178 and KLHL12^1–161 alone at 3 mg/ml
CUL3^WT-RBX1 [3] = target: T1, CUL3^WT-RBX1 (human, UniProt Q13618 1-768; P62877 1-108); assay: ITC; ITC200; CUL3-RBX1 (120 μM) in the syringe titrated into KLHL22^1–178 (10 μM) in the cell, 25 °C, one-site model; repeated with KLHL22^1–178 (120 μM) into CUL3-RBX1 (12 μM); details: both partners purified
T1 construct: Cullin-3 (CUL3), human, full length; also called CUL3-RBX1; (CUL3-His6)-RBX1; source: SF9 insect cells, co-expressed from pFastbac-dual, purified (Ni-IDA, SEC); copies: 1 + 1

CUL3^Δ1–13-RBX1 [4] = target: T2, CUL3^Δ1–13-RBX1 (human, UniProt Q13618 14-768; P62877 1-108); assay: as above; details: both partners purified
T2 construct: Cullin-3 (CUL3), human, residues 1-13 deleted (partial deletion of the NA motif); RBX1, human, without a tag; source: purified; host stated only for wild-type CUL3-RBX1 (SF9); copies: 1 + 1

CUL3^Δ1–24-RBX1 [5] = target: T3, CUL3^Δ1–24-RBX1 (human, UniProt Q13618 25-768; P62877 1-108); assay: as above; details: both partners purified
T3 construct: Cullin-3 (CUL3), human, residues 1-24 (the whole NA motif) deleted; RBX1, human, without a tag; source: purified; host stated only for wild-type CUL3-RBX1 (SF9); copies: 1 + 1

CUL3^WT-RBX1 [6] = target: T1, CUL3^WT-RBX1; assay: SEC; analytical SEC, Superdex 200 Increase 10/300 GL, 20 mM Tris-HCl pH 8.0, 150 mM NaCl, 1% glycerol, 1 mM TCEP; purified proteins mixed 1:1 (also 2:1 and 4:1 CUL3-RBX1 to BTB protein), 10 min on ice; details: both partners purified
CUL3^Δ1–13-RBX1 [7] = target: T2, CUL3^Δ1–13-RBX1; assay: as above; details: both partners purified
CUL3^Δ1–24-RBX1 [8] = target: T3, CUL3^Δ1–24-RBX1; assay: as above; details: both partners purified

T3 sequence (Q13618 25-768, stated change not applied, chain 1 of 2): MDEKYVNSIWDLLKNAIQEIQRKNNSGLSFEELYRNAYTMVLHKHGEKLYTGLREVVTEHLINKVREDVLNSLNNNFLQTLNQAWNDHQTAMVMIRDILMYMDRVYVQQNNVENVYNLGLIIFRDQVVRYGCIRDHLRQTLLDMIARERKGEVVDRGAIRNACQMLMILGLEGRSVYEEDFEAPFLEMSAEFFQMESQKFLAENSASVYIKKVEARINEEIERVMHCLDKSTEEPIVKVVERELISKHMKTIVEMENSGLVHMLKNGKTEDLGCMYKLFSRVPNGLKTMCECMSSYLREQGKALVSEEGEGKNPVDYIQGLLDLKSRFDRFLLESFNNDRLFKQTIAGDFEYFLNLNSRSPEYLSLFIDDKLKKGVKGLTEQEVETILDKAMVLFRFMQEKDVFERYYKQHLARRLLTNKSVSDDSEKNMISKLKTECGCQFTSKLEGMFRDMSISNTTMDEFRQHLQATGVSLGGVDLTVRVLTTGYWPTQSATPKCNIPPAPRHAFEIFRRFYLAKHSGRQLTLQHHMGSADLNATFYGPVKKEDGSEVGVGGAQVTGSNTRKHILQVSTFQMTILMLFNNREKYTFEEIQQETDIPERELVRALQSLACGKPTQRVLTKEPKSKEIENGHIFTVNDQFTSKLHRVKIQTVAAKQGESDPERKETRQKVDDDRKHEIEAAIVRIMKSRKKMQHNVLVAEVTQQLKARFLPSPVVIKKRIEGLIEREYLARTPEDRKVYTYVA
T3 sequence (P62877 whole entry, stated change not applied, chain 2 of 2, the tested form may be a part): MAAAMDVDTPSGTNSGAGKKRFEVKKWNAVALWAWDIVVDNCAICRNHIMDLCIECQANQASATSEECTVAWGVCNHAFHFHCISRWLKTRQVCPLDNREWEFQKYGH
T2 sequence (Q13618 14-768, stated change not applied, chain 1 of 2): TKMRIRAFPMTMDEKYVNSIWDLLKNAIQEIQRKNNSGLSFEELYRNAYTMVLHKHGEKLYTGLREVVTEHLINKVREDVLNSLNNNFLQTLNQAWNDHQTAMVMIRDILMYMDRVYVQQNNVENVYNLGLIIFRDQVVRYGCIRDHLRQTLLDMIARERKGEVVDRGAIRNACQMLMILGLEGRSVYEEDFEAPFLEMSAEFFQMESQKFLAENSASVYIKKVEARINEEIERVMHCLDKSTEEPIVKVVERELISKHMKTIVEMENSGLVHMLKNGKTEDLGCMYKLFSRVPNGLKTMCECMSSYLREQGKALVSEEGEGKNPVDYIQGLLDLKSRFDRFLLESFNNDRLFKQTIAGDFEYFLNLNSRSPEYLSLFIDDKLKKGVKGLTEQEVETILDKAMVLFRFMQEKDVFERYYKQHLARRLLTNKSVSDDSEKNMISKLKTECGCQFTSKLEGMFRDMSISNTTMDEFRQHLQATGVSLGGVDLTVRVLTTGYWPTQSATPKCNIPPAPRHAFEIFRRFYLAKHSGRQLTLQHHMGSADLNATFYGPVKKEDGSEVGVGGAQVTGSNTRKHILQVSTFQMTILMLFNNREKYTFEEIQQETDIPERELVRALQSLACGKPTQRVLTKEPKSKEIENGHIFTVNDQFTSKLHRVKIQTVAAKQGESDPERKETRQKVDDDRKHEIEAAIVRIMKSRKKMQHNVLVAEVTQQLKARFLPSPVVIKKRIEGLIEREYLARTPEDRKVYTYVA
T2 sequence (P62877 whole entry, stated change not applied, chain 2 of 2, the tested form may be a part): as the sequence (P62877 whole entry, stated change not applied, chain 2 of 2, the tested form may be a part) above
T1 sequence (Q13618 whole entry, chain 1 of 2): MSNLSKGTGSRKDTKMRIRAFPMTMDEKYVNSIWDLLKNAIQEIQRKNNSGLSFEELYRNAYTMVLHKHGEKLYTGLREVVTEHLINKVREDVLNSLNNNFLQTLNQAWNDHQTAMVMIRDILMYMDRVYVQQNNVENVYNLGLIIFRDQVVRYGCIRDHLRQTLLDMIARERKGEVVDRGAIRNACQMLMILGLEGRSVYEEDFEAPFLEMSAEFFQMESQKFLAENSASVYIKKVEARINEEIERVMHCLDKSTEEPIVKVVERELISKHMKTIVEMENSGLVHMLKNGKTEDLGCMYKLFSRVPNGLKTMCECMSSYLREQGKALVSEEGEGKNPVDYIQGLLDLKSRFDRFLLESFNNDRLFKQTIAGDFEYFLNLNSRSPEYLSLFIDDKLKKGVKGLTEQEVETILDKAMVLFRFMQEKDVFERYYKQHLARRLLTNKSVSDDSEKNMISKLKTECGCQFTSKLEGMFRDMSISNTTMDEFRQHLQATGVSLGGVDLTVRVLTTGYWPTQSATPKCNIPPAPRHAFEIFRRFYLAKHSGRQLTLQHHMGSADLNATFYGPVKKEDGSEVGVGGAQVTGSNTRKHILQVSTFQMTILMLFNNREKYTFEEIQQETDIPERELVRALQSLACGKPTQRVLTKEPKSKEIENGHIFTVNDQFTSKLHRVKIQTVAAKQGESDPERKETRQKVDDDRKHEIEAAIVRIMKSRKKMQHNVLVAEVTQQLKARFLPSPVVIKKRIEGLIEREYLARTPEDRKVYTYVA
T1 sequence (P62877 whole entry, chain 2 of 2): as the sequence (P62877 whole entry, stated change not applied, chain 2 of 2, the tested form may be a part) above

B1: KLHL22 (full length, N-terminal His6) (natural protein, human, UniProt Q53GT1 1-634, looked up)
chain: MAEEQEFTQLCKLPAQPSHPHCVNNTYRSAQHSQALLRGLLALRDSGILFDVVLVVEGRHIEAHRILLAASCDYFRGMFAGGLKEMEQEEVLIHGVSYNAMCQILHFIYTSELELSLSNVQETLVAACQLQIPEIIHFCCDFLMSWVDEENILDVYRLAELFDLSRLTEQLDTYILKNFVAFSRTDKYRQLPLEKVYSLLSSNRLEVSCETEVYEGALLYHYSLEQVQADQISLHEPPKLLETVRFPLMEAEVLQRLHDKLDPSPLRDTVASALMYHRNESLQPSLQSPQTELRSDFQCVVGFGGIHSTPSTVLSDQAKYLNPLLGEWKHFTASLAPRMSNQGIAVLNNFVYLIGGDNNVQGFRAESRCWRYDPRHNRWFQIQSLQQEHADLSVCVVGRYIYAVAGRDYHNDLNAVERYDPATNSWAYVAPLKREVYAHAGATLEGKMYITCGRRGEDYLKETHCYDPGSNTWHTLADGPVRRAWHGMATLLNKLYVIGGSNNDAGYRRDVHQVACYSCTSGQWSSVCPLPAGHGEPGIAVLDNRIYVLGGRSHNRGSRTGYVHIYDVEKDCWEEGPQLDNSISGLAACVLTLPRSLLLEPPRGTPDRSQADPDFASEVMSVSDWEEFDNSSED
notes: Kelch-like protein 22 (KLHL22), human, full length; Dimer in the cryo-EM structure of CRL3^KLHL22; also called His6-KLHL22
binding result [1]: binds

Kd (CUL3^WT-RBX1 [3]): ~27 nM
Kd (CUL3^Δ1–13-RBX1 [4]): ~87 nM
Kd (CUL3^Δ1–24-RBX1 [5]): ~383 nM
B2: KLHL22^1–178 (domain or fragment, human, UniProt Q53GT1 1-178, looked up)
chain: MAEEQEFTQLCKLPAQPSHPHCVNNTYRSAQHSQALLRGLLALRDSGILFDVVLVVEGRHIEAHRILLAASCDYFRGMFAGGLKEMEQEEVLIHGVSYNAMCQILHFIYTSELELSLSNVQETLVAACQLQIPEIIHFCCDFLMSWVDEENILDVYRLAELFDLSRLTEQLDTYILKN
notes: TEV site ENLYFQG: a residue of the site may be left at the N-terminus after cleavage; source: E. coli BL21(DE3), purified (Ni-IDA, SEC), His-MBP tag removed with TEV protease; not shown: His6, N-terminal, cleaved; MBP, N-terminal, cleaved
stoichiometry N [2]: 2

binding result (CUL3^WT-RBX1 [6]): binds
binding result (CUL3^Δ1–13-RBX1 [7]): binds
binding result (CUL3^Δ1–24-RBX1 [8]): binds
B3: KLHL12^1–161 (domain or fragment, human, UniProt Q53G59 1-161, looked up)
chain: MGGIMAPKDIMTNTHAKSILNSMNSLRKSNTLCDVTLRVEQKDFPAHRIVLAACSDYFCAMFTSELSEKGKPYVDIQGLTASTMEILLDFVYTETVHVTVENVQELLPAACLLQLKGVKQACCEFLESQLDPSNCLGIRDFAETHNCVDLMQAAEVFSQKH
notes: as for B2
stoichiometry N [2]: 2
